Measurements reported in patent US20250066455A1 (published 2025).

B1: PDI 96 (antibody, V domains shown)
VH: LVQLVQSGAEVKKPGASVKISCKASGYTFTSYYMHWVRQAPGQGLEWMGIINPSGGGTSYAQKFQGRVTMTRDTSTSTVYMELTSLRSDDTAVYYCAKDRVTIFWGNGMDVWGQGTTVTVSS
VL: not shown
B2: PDI 231 (antibody, V domains shown)
VH: EVQLVESGGGLIQPGGSLRLSCVASGLTVSSNYMNWVRQTPGKGLEWVSVIYSGGSTFYADSVKGRFTISRDNSKNTLFLQMNSLRAEDTAVYYCARVGGYCSSANCVSDVWGKGTTVTVSS
VL: DIQMTQSPSSLSASVGDRVTITCQASQDIRNYLNWYQQKPGKAPKIMIYDASILETGVPSRFSGSGSGTDFTFTISSLQPEDIATYYCQQYDNLPITFGQGTQLEIK
B3: REGN10987 (antibody, V domains shown)
VH: QVQLVESGGGVVQPGRSLRLSCAASGFTFSNYAMYWVRQAPGKGLEWVAVISYDGSNKYYADSVKGRFTISRDNSKNTLYLQMNSLRTEDTAVYYCASGSDYGDYLLVYWGQGTLVTVSS
VL: QSALTQPASVSGSPGQSITISCTGTSSDVGGYNYVSWYQQHPGKAPKLMIYDVSKRPSGVSNRFSGSKSGNTASLTISGLQSEDEADYYCNSLTSISTWVFGGGTKLTVLR
B4: PDI 42 (antibody, V domains shown)
VH: EVQLVESGGGLVQPGGSLRLSCAASGLTVSSNYMSWVRQAPGKGLEWVSVFYPGGSTYNADSVKGRFTISRDNSKNTLYLQMNSLRAEDTAVYYCARDAVYYGMDVWGQGTTVTVSS
VL: not shown
B5: REGN10933 (antibody, V domains shown)
VH: QVQLVESGGGLVKPGGSLRLSCAASGFTFSDYYMSWIRQAPGKGLEWVSYITYSGSTIYYADSVKGRFTISRDNAKSSLYLQMNSLRAEDTAVYYCARDRGTTMVPFDYWGQGTLVTVSS
VL: DIQMTQSPSSLSASVGDRVTITCQASQDITNYLNWYQQKPGKAPKLLIYAASNLETGVPSRFSGSGSGTDFTFTISGLQPEDIATYYCQQYDNLPLTFGGGTKVEIKR

How the values were obtained:
[1] = target: T1, SARS-CoV-2 spike receptor-binding domain (RBD) (SARS-CoV-2, UniProt P0DTC2 319-541); assay: BLI
[2] = target: T1, SARS-CoV-2 spike receptor-binding …; assay: ELISA
RBD = RBD (SARS-CoV-2, UniProt P0DTC2 319-541); assay: ELISA
SARS-CoV-2 WT RBD = SARS-CoV-2 WT RBD (SARS-CoV-2, UniProt P0DTC2 319-541); assay: BLI

Row | Binder | Kd [1] [nM] | IC50 [2] [µg/mL] | IC50 (RBD) [µg/mL] | Kd (SARS-CoV-2 WT RBD) [nM]
1 | B1 | 2.6 | 0.346 | – | –
2 | B2 | 0.38 | 0.328 | – | –
3 | B3 | – | – | 0.298 | 17.6
4 | B4 | 1.1 | 0.31 | – | –
5 | B5 | – | – | 0.293 | 3.5
